Experimental findings from patent US11491212 are described below.

B1: FIXa Y155F/K247N/N249S/R318Y/T343R/R403E (protein)
chain 1: not shown
chain 2: not shown
B2: FIXa K247N/N249S/R318Y/T343R/E410N (protein)
chain 1: not shown
chain 2: not shown
B3: FIXa Y155F/K247N/N249S/R338E/T343R/R403E (protein)
chain 1: not shown
chain 2: not shown
B4: FIXa-Y155F/K228N/K247N/N249S/R318Y/R338E/T343R/R403E/E410N (protein)
chain 1: not shown
chain 2: not shown
B5: FIXa Y155F/K247N/N249S/R338E/T343R/E410N (protein)
chain 1: not shown
chain 2: not shown
B6: FIXa Y155F/K247N/N249S/R318Y/T343R/E410N (protein)
chain 1: not shown
chain 2: not shown
B7: FIXa-Y155F/N260S/R318Y/R338E/T343R/R403E/E410N (protein)
chain 1: not shown
chain 2: not shown
B8: FIXa K247N/N249S/R338E/T343R/E410N (protein)
chain 1: not shown
chain 2: not shown
B9: FIXa-K228N/K247N/N249S/R318Y/R338E/T343R/R403E/E410N (protein)
chain 1: not shown
chain 2: not shown
B10: FIXa K247N/N249S/R318Y/T343R/R403E (protein)
chain 1: not shown
chain 2: not shown
B11: FIXa K247N/N249S/R338E/T343R/R403E (protein)
chain 1: not shown
chain 2: not shown
B12: FIXa Y155F/K247N/N249S/T343R/R403E/E410N (protein)
chain 1: not shown
chain 2: not shown
B13: FIXa R338E/T343R/E410N (protein)
chain 1: not shown
chain 2: not shown

The target of this series is Factor X, P00742.
Chain of Factor X, P00742 (P00742 whole entry, looked up): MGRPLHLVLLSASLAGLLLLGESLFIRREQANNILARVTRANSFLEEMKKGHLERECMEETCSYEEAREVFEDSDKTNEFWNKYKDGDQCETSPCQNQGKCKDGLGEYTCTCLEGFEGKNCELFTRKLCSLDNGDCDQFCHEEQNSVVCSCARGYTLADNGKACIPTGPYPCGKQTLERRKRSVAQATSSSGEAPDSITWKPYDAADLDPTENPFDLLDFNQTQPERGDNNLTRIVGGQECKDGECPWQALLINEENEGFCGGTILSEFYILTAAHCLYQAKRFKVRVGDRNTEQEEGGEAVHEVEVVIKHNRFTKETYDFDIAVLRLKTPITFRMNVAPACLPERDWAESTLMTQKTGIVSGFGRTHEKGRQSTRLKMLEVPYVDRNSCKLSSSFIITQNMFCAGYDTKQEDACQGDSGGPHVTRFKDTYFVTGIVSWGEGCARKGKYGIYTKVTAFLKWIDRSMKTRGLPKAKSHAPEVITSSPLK
As a reminder, the kcat/KM is the turnover number divided by the Michaelis constant. For the protein B1, the “% of WT kcat/KM” value came to 276% and the kcat/KM worked out at 1.3e+08 M⁻¹ s⁻¹.
The like results for B2 were, in that order, 439% and 2e+08 M⁻¹ s⁻¹.
The like results for B3 were, in that order, 1269% and 5.9e+08 M⁻¹ s⁻¹.
What is called KM is the concentration of substrate that gives half-maximal velocity. B4: the KM worked out at 36.8 nM and the kcat/KM was 3e+08 M⁻¹ s⁻¹.
As for B5, the “% of WT kcat/KM” value turned out to be 391% and the kcat/KM was 1.8e+08 M⁻¹ s⁻¹.
For the protein B6, the “% of WT kcat/KM” value is listed as 668% and the kcat/KM came out at 3.1e+08 M⁻¹ s⁻¹.
With B7, the Michaelis-Menten constant (KM) turned out to be 40.2 nM and the kcat/KM was found to be 1.5e+08 M⁻¹ s⁻¹.
In the case of B8, the “% of WT kcat/KM” value is recorded as 676% and the kcat/KM was 3.1e+08 M⁻¹ s⁻¹.
For the protein B9, the Michaelis constant (KM) came out at 25.1 nM and the specificity constant (kcat/KM) was determined as 4.1e+08 M⁻¹ s⁻¹.
Turning to B10, the “% of WT kcat/KM” value is listed as 84% and the kcat/KM amounted to 3.9e+07 M⁻¹ s⁻¹.
On to B11, for which the “% of WT kcat/KM” value came to 1215% and the kcat/KM is 5.6e+08 M⁻¹ s⁻¹.
With B12, the “% of WT kcat/KM” value was 635% and the kcat/KM came out at 2.9e+08 M⁻¹ s⁻¹.
Consider B13, for which the “% of WT kcat/KM” value worked out at 201% and the catalytic efficiency (kcat/KM) worked out at 9.3e+07 M⁻¹ s⁻¹.
